Results: the nanobody polyreactivity screen of Harvey et al. (2022)

Test: yeast display, Sf9 membrane polyspecificity reagent, FACS + sequencing; frameworks hold sequencing errors
How it was run: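 Genes from sorted yeast were amplified by colony PCR, read by MiSeq 2 × 250 sequencing and filtered on CDR length. These cells carried a synthetic nanobody library in Saccharomyces cerevisiae BJ5465 and were sorted by FACS into low and high (top ~1%) gates on anti-HA and streptavidin fluorescence. Polyreactivity is labelled according to the gate of origin.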

Sequence	polyreactivity (PSR sort gate)
QVQLVESGGGLVQAGGSLRLSCAASGSIFEGSVMGWSRQAPGKEREWVATISFSGGSTYYADSVKGRFTISRDNAKNTLYLQMNSLKPEDTAVYYCNALVYHTKGDYGYWGQGTQVTVSS	low polyreactivity
QVQLVESGGGLVQAGGSLRLSCAASGRTFDHNAMGWYRQAPGKERELVAAITSRGGSTYYADSVKGRFTISRDIAKYTGYLQMNSLKPEDTAVYYCAARKRSVYGTEYDYLGQGTQVTVSS	high polyreactivity
QVQLVESGGGLVQAGGSLRLSCAASGSTFDPNDMGWYRPAPGKERQLVASITSRGGSTYYADSVKGRFTISRDNAKNTVYLQMNSLKPEDTAVYYCAAVGGATYSWNGYSWYPWHNYWGQGTQVTVSS	low polyreactivity
QVQLVESGGGLVQAGGSLRLSCAATGRTFSTYAMGWYRQAPGKERELVAAISSGGGRTYYADSVKGRFTISRDNAKNTVYLQMNSLKPEDTAVYYCAADFLWYIYIIGTSLEFDYWGQGTQVTVSS	low polyreactivity
QRQLVESGGGLVQAGGRLRLSCAASGMTVWDYAMGWYRHATGKERQLVAAISGSGARTYYADSVKWRFTISRDTAKNTVYLQMNSLNPEDTAVYYCAARAVRATAKYEYWGQGTQVTVSS	high polyreactivity
QVQLVESGGGLVQAGGSLRLSCAASGRTFYVYAMGWYRQAPGKERELVAAITRGGRTKYADSVKGRFTISRDNAKNTVYLQMNSLKPEDTAVYYCATVASPNRGGVSRYDYWGQGTQVTVSS	high polyreactivity
QVQLVESGGGLDQAGGSLRLSCAASGYTFGRNAMGWYRQAPGKERELVATISQRGGSTYYADSVKGRFTISRDNANNTVYLQMNSLKPEDTAVYYCAAGPIYRYRRYYYWGQGTQVTVSS	high polyreactivity
QVQLVESGGGLDQAGGSLRLSWAASGITFGWYAKGWYRLAPGKERELVASISSSGSTNYADSVKGRLTISRDNAKNTVYLQMNSQKTEDTAVYYCNKDYLLRHFYIYVIEGDYWGQGTKVTVSS	low polyreactivity
QVQLVESGGGLVQAGGSLRLSCAASGSTFQRYAMGWYRQAPGKERELVAVITNGGSTKYADSVKGRFTISRDNAKNTVYLQMNSLKPEDTAVYYCAAGLRSWSTGLWYGYWGQGTQVTVSS	high polyreactivity
QVQLEESGGGLVQAGGSLRLSCAASGRTFDRYAMGWYRQAPGKERELVAAITWSGGRTYYADSVKGRFTISRVNAKNTVYLQMNSLKPEDTAVYYCAADNSYRGYHSPYDYWGQGTQVTVSS	low polyreactivity
QVQLVESGGGLVQAGGSLRLSCAACGSIFLKYVMGWYRQAPGKERELVAAISFRSGSTYYADSVKGRFTISRDNAKNTVYVQMNSLKPEDTAVYYCAASWTPRYLGFDHWGQGSQVTVSS	high polyreactivity
QFQLVESVGGLVQAGGSLRLTCAASGRIFLNYDMGWYRQEPGKDRELVAAITTGGSTYADSVKGRFTISRDNAKNTVYLQMNSLKAEDTAVYYCANRDRNKRDNWGQGTQVTGSS	low polyreactivity
QVQLVESGGGLVQAGGSLRLSCAASGFILERYAMGWYRQAPGKERELVAAISSVGNTNYADSVKGRFTITRDNAKNTVYLQMNSLKPEDTAVYYCAAEGAFPIYDYWGQGTQVTVSS	low polyreactivity
QDQHVESGGGLVQAGGSLRLSCDASGFIFPYYVMGWYRQAPGKERELVAGISSGGRTNYADSVKGRFTISRDNAKNTVYLQMISLKPEDTAVYYCNDRWYRYPPRVRLYYWGQGTQVTVSS	high polyreactivity
QVQHVESGGGLVQAGGSLRLSCAASGFIFVSYTMGWYRHAPGKEWELVATITVSDGSTYYADSVKGRFTISRDNAKNTVYLQMNSLKPEDTAVYYCNKDKVVVRYDYWGQGTQVTVSS	low polyreactivity
QVQLVESGGGLVQAGCSLRLSCAASGIIFGYYAMGWYRQAPVKERELVAAISSRGSRTYYSDSLKGRFTISRDNAKNTVYLQMNSLIPEDTAVYYCAVRGKFDYWGQGTQVTVSS	high polyreactivity
QVQLVESGGGFVQAGGSLRLSCAASGSIFRFYAMGWYRQAPGKERELVASITSGGSTNYADSVKGRFTISRDNAKNTVYLQMNSLKPEDTAVYYCAVRLKGYRRRDYWGQGTQVTVSS	high polyreactivity
QVQLVESGGGLVQAGGSLRLSCAASGSTFCRNTMGWYRQAPGKERELVAAINRSASNTYYADSVKGRFTISRDNAKNTVYLQMNSLKQEDPAVYYCSTYSRIFKWEYYYWGQGTQGTVSS	high polyreactivity
QVQLVESGGGLVQAGGSLRLSCAASVFTFYLYAMGWDRQAPGKERELVADITKRGGSTDYADSVKGRFTISRDNAKNTVYLQMNSLKPEDTAVYYCAARGPTFGVDYGYWGQGTQVTVSS	high polyreactivity
QVQLVESGAGLVQAGGSLRLSCAAYGSIFIIYAMGWYRQAPGKERELVAAINTSGTSTYYADSVKGRFTISRDNAKNTVYLQMNSLKPEDTAVYYCAAAGRRSYKYYYWGQGTQVTVSS	high polyreactivity
QVQLVESGGGLVQAGGSLRLICAASGRILYKNSMGWYRQAPAKEMQLVAAISSTAGYTYYADSLKGRFTISRDNAKNTVYLQMNSLKPEDTAVYYCAARRSGVKRRYDYWGQGTQVTVSS	low polyreactivity
QVQLVESGGGLVQAGGSLRLSCAASGRIFYRNAMGWYRQAPGKERELVAAISYSGGRTYYADSVKGRFTISRDNAKNTVYLQMNSLKPEDTAVFYCAARYAWGYVDPGDYWGQGTQVTVSS	high polyreactivity

Sequence	polyreactivity (PSR sort gate)
QVQLVESGGGLVQAGGSLRLSCAASGRTSGFNTMGWYRQAPGKERELVAAISFSGGSTYYADSVKGRFTISRDNAKNTGYLQMNSLKPEDTAVYYCAAELERDEEYDYWGQGTQVTVSS	low polyreactivity
QVQLVESGGGLVQAGGSLRLSCAASGNTFRYYAMGWYRQAPGKERELVAAISGDGGSTYYADSVKGRFTISRDNAKNTVYLQMNSLKPEDTAVYYCNKAGRRRYRESDYWGQGTQVTVSS	high polyreactivity
QVQLVESGGGLVQAGGSLRLSCAASGFIFGTYAMGWYRQAPGKERELVAAISSGGSTYYADSVKGRFTISRDNAKNTVYLQMNSLKPEDTAVYYCAKEGGTYRIFNYWGQGTQVTVSS	low polyreactivity
QVPLVESGGGLVQAGGSLRLSCAASGSTLYGYAMGWSSQAPGKERELVAAISYSGGRTFYADSVKGRFTISRDNAKNTVYLQMNSLKPADSAVYYCAAEYTVYVTDWYDYYDWGQGTQVTVAS	low polyreactivity
QVQLVESGGGLFQAGGSLRLSCAASGRTFCPYTMGWYRQAPGKERELVAVISSNDGSTDYADSVKGRFTFSRDNAKNTVYLQMNSLKPEDTAVYYCAAEVYFGYYGGYGYWGQGTQVTVSS	low polyreactivity
QVQLVESGGGLVQAGGSLRLSCAASGGIFRHNAMGWYRQAPGKEREFVAAISRSGGNTYYADSVKGRFTISRDNAKNTVYLQMNSLKPEDTAVYYCNKIEYDSWADHVYWGQGTQVTVSS	low polyreactivity
QVQLVESGGGLVQAGGSLRLSCAASGRIGKYAMGWYRQAPGKERELVATISSTGTTNYADSVKGRFTISRDNAKNTVYLKMNSLKPEDTAVYYCAARWEYVGYRRRYYRFDYWGQGTQVTVSS	high polyreactivity
QVQLVESGGGLVQAGGSLSLSCADSGSTFPKYAMGWYRQAPGKERELVASISVTTGSTYYADTVKGRFTISRDNAKNTVYLHMNSLKPVDTAVYYCAKRTYSRKLRGAYNYWGQGTQVTVSS	high polyreactivity
QVQLVESGGGLVQAGGSLRLSCAASGITFDDYDMGWYRQAPGKEREFVAAISFSGSSTYYADSVKGRFTISRDNAKNTVYLQMNSLKPEDTAVYYCNADYVYSGGRYYGKDYWFDYWGQGTQVTVSS	low polyreactivity
QVQLVESGGGVVQAGGSLRLSCAASGSTLAGYAMGWYRPAPGKERELVAAIDWTGGSTTYADSVKGRFTISRDYAKNTVYLQMNCLKPDDTAVYSCNVVLGVNGDYWGQGCQVTVSS	low polyreactivity
QVQLVESGGGLVQAGGSLRLSCAASGSIFSYNVMGGYRQAPGKERELVAVITGSGGSTYYADSVKGRFTISRDNAKNTVYLQMNSLKPEDTAVYYCNKDRGTIPPSGNDYWGQGTLVTVSS	low polyreactivity
QVQLVESGGGLVQAGGSLRLSCAASGFIFRHYAMGWYRQSPGKAREMVAVINWSGSSTYYADSVKGRFTISRDNEKNTVFLQMNSLKPEDTAVYYCAVRSLRVDKYGYWGLGTQVTVSS	high polyreactivity
QEQLVESGGGLVQAGGSLRLSCAASGFTFYFNAMGWYRQAPGKERELVAGITSDGITYYADSVKGRFTISRDNANNTVYLQMNSLKPEDTAVYYCAARKLEWDIKNDYCGQGTQVTVSS	low polyreactivity
QVHLVESGGGLVQAGGSLRLSCAASGITLGYYVMGWYRQAPGKERELVAAISSSGGRTYYADSVKGRFTISRDNAKNTVYLQMNSLKPEDTAVYYCSADLGRGIYDYWGQGTQVTVSS	low polyreactivity
QVQLVESGGGLVQAGGSLRLSCAASGRTFGWYAMGWYRQAPGKERELVAAISSSDDSTYYADSVKGRFTISRDNAKNTVYLQMNSLKPEDTAVYYCAADGYPDPYKVRFGYWGQGTQVTVSS	low polyreactivity
QVQLVESGGGLVQAGGSLRLSCAASGFTFDVYAMGWYRQAPGKERELVAAITGSDGSTYYADSVKGRFTISRDNAKNTVYLQMNSLKPEDTAVYYCNARSRSVVYKYDYWGQGTQVTVSS	low polyreactivity
QVQLVESGGGLVQAGGSLRLSCAASGFTINFYSLGWYRQAPGKERELVAAITASGGGSTYYADSVKGRFTISRDNAKNTVYLQMNSLKQEDTAVYYCNADFTGSFYTYEYWGQGTQVTVAS	low polyreactivity
QVQLVESGGGKVQAGGSLRLSCAASGNTFTSNALGWYRQAPGKERELVAAISISGSTNYADSVKGRFTISRDNAKNSVYLQMNSLKPEDTAVYSCAARVGYTAWRRYNYWGQGTQVTVSS	high polyreactivity
QVQLVESVGGLVQAGGSLRLSCAASGRTFYHYAIGWYIQAPGQERELVAAITYRGGNTYYADSVKGRFTISRDNAKNTVYLQMNRLKPEDTAVYYCAKQGVRRHYGYDYWGQGTQVTVSS	high polyreactivity
QVQLVESGGGLVQAGGSLRLSCAASGRIFVYNAMGWYRQAPGKERELVASISSTTSTYYADSVKGRFTISRDNAKNTVYLQMNSLKPEDTAVYYCNARYQTRYGRYWYKVRGMDYWGQGTQVTVSS	high polyreactivity
QVQLVESGGGLVQAGGSLRLSCAGSGSIFGLYAMGWYRQEPGKERELVAAINQSGGSTSYADSVKGRFTISRDNAKNTVYFQMNSLKPEDTAVYYCNRVRLNTEGFDYWGQGTQVTVSS	low polyreactivity
